We go through 15 molecules from US20210171652A1 (University of Pennsylvania, published 2021).

Where a chain is given by its changes, count along the chain named.

T1: Band 3 / glycophorin A (Wright b, Wrb epitope) on human red blood cells (human, UniProt P02724 20-150)
T1 construct: whole, on cells; also called Band3/GPA; AE1
T1 sequence 1: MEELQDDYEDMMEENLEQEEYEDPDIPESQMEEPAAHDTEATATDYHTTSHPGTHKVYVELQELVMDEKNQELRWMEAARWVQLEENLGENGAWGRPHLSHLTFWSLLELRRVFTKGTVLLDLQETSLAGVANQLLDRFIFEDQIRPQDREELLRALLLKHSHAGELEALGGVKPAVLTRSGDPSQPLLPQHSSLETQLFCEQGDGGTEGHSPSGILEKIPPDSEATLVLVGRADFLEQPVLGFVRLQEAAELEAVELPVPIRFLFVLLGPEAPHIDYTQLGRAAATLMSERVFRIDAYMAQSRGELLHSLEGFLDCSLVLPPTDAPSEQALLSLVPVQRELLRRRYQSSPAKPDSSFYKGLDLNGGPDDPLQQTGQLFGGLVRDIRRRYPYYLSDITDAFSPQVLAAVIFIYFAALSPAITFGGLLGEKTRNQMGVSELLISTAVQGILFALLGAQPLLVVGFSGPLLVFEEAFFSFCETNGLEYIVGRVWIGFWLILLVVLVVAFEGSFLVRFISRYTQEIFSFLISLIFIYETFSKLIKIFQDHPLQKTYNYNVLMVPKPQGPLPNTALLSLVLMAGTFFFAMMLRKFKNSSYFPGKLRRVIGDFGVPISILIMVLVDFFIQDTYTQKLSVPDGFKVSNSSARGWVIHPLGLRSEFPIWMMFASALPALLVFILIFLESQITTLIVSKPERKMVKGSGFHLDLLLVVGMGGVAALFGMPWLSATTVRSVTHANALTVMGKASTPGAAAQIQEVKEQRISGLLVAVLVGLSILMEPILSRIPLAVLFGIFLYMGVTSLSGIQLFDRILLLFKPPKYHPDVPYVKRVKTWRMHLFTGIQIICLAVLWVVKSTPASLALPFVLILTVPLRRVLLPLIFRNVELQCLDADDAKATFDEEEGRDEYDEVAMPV
T1 sequence 2: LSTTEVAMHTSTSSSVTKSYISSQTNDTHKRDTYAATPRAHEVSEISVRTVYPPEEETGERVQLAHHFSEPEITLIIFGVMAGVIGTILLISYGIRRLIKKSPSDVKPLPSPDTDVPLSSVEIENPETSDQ

B1: KP2-13 Fab/phage clone (anti-Band 3, Wrb) (Fab, V domains shown)
VH: EVQLLESGPGLVKPSETLSLTCAVSGGSISGGYDWSWIRQSPGKGLEWIGYIYDSRGTTNYNPSLRKRVAISIDTSRNQFSLNLRSLTAADTAVYYCARRAGYGSAYFDYWGQGVLVTVSS
VL: AAELTQSPATLSLAPGETATLSCRASQSIGTNLAWYHQKPGQPPKLLVHTAYVRATGIPNRFSGSGSRTDFTLTINSLQPEDVGVYHCQQYNDLLPLTFGGGTKIDIK
B2: KP2-22 Fab/phage clone (anti-Band 3, Wrb) (Fab, V domains shown)
VH: EVQLLESGPGLVKPSETLSLTCAVSGDSISSGYGWSWIRQTPGKGLEWIGYIGGSRGNTNYNPSLKSRVTISKDTSKNQFSLKLSSVTAADTAVYYCARRAPYWGYSYLDYWGQGVLVTVSS
VL: B1 VL with A1E, A2L, E3T, P43S, T50S, N60D, I105V, D106E
B3: KP2-24 Fab/phage clone (anti-Band 3, Wrb) (Fab, V domains shown)
VH: EVQLLESGPGLVKPSETLSLTCTVSGYSISSGYGWGWIRQSPGKGLEWIGYFGGSRGNTNYNPSLKSRVTISQDTSKNQFSLKLKSVTAADTGIYYCARDSGYSRRWVDYWGQGVLVTVSS
VL: B1 VL with I29V, T50S, N60D
B4: KP3-12 Fab/phage clone (anti-Band 3, Wrb) (Fab, V domains shown)
VH: EVQLLESGPGLVKPSETLSLTCAVSGNSISSAYGWHWIRQVPGKGLEWIGSIGGSRGTTNYNPSLKSRGTISEDTSKNQFSLRLRSVSAADTAVYFCARDSGYSFRYFDFWGRGVLVTVSS
VL: B1 VL with T50S
B5: KP2-15 Fab/phage clone (anti-Band 3, Wrb) (Fab, V domains shown)
VH: B1 VH with A70T, N83K
VL: AAELTQSPATLSVSPGEAATLSCRASQTVGRNLAWYQQKPGQAPKLLVHSAHFRATGIPDRFSGSGSGTDFTLTISSLEPEDAGIYHCQQYNDLLPLTFGGGTKVEIK
B6: KP2-20 Fab/phage clone (anti-Band 3, Wrb) (Fab, V domains shown)
VH: B1 VH with A70T, N83K
VL: AAELTQSPATLSLSPGETATLSCRASQSVGSNLAWYQQKPGQAPKLLVHSGSVRATGIPDRFSGSGSRTDFTLIISSLEPEDVGVYHCQQYNDLLPLTFGGGTKVEIK
B7: KP3-09 Fab/phage clone (anti-Band 3, Wrb) (Fab, V domains shown)
VH: EVQLLESGPGLVKPSETLSLTCAVSSLSLSSGFAWSWIRQPPGEGLEWIGSIGGSRDNVNYNPSLKSRVTISKDTSKNQFSLRLRSVTAADTAVYYCVTIHGYRNWYLDHWGQGVLVTVST
VL: B6 VL with T10I, V29I, S31T, N32S, G51A, S52Y, V53Y, G57D, D60E, I74T
B8: KP2-19 Fab/phage clone (anti-Band 3, Wrb) (Fab, V domains shown)
VH: EVQLLESGPGLVKPSETLSLTCAVSGGSINGGYDWTWIRQSPGKGLQWIGWIYGSRGTTNYNPSLRNRVTISIDTSRNQFSLRLSSLTAADTAVYYCAKRVGYGNSYFDSWGQGVLVTVSS
VL: ELTLTQSPATLSLSPGERATLSCRASQSVSSRLAWYQQKPGQAPRLLIYDASSRVTGIPDRFSGSGSGTDFTLTISSLEPEDVGVYHCQQYNDLLPLTFGGGTKVEIK
B9: KP2-17 Fab/phage clone (anti-Band 3, Wrb) (Fab, V domains shown)
VH: EVQLLESGPGLVKPSETLSLTCAVSGYSISSGYGWTWIRQPPGKGLEWIGYIGGSRGNANYNPSLKSRVTISKDTSKNQFSLKLTSVTAADTAVYYCARDGGYGERYLEFWGQGALVTVSS
VL: AAELTQSPAFRSVTLKEKVTITCQASQSIGSSLHWYQQKPDQSPKLLIKFASQSISGVPSRFSGSGYGTDFTLTINSLEAEDAATYYCHQSSSFPWTFGQGTKVEIK
B10: KP2-23 Fab/phage clone (anti-Band 3, Wrb) (Fab, V domains shown)
VH: EVQLLESGPGLVKPSETLSLTCTVSGSSLSSAYGWNWIRQPPGKGLEWIGSIGGSRDNTNYNPSLKRRVTISKDTSKNQFSLKLKSVTAADTAVYYCAQRGAYGYSYFDYWGQGVLVAVSS
VL: B5 VL with A1E, A2L, E3T, V13L, A18T, K39R, K45N, H52Y, I85V
B11: KP3-19 Fab/phage clone (anti-Band 3, Wrb) (Fab, V domains shown)
VH: EVQLLESGPGLVKPSETLSLTCAVSGGSLSGGYDWYWIRQSPRKGLEYIGYIYDSRGTTNYNPSLKNRVTISIDTSKNHFSLNLKSVTAADTAVYYCARRVGYGATYFDLWGQGVLVTVSS
VL: B6 VL with A1E, A2L, E3V, L4M, G51A, S52N, V53F, P59S, I74T
B12: KP3-07 Fab/phage clone (anti-Band 3, Wrb) (Fab, V domains shown)
VH: B10 VH with A118T
VL: ELVMTQSPATLSLSPGETATLSCRASQSIGSNLAWYQQKPGQAPKLLVHSANIRATGIPDRFIGSGSRTDFTLTISSLEPEDVGVYHCQQYNDFLPLTFGGGTKVEIK
B13: KP2-14 Fab/phage clone (anti-Band 3, Wrb) (Fab, V domains shown)
VH: EVQLLESGPGLVKPSETLSLTCAVSGSSLSSAYGWNWIRQAPGKRLEWIGFIGGSRDNTNYNPSLRSRVTISKDTSKNHFSLKLTSVTAADTAVYFCARRGAFGNSYFDYWGQGVPVTVSS
VL: B6 VL with Q27E, N32S, Q37H, K45R, G51A, V53F, D70E, I74T, I75V
B14: KP3-06 Fab/phage clone (anti-Band 3, Wrb) (Fab, V domains shown)
VH: EVQLLESGPGLVRPSETLSVTCDVSGGSISSASWSWIRQAPGKRLEWIGAISGSGSPTNVNPSLKSRVTLSVDTSKNQLSLKLRSMTAADTAVYYCARRGGYGNRYFDYWGQGVAVTVSS
VL: B6 VL with N32S, G51A, S52Y, V53F, I74T
B15: KP3-20 Fab/phage clone (anti-Band 3, Wrb) (Fab, V domains shown)
VH: EVQLLESGPGLVKPSETLSLTCAVSGYSISSGFAWNWIRQTPGKGLEWIGYIGGSRDNTNYNPSLKSRVTISKDTSKNQFSLKLTSMTAADTAMYYCARRGAYGNSYFDFWGQGVPVTVSS
VL: B6 VL with L33V, G51A, S52Y, V53Y, I74T

For this assay, the target named is T1, Band 3 / glycophorin A (Wright b, Wrb …). Kind of assay: Fab/phage binding assays on human RBCs incl. rare RBC types lacking conserved antigens. The protocol: An IgG Fab/phage display library was prepared from the peripheral blood lymphocytes of a hyperimmunized macaque using homologous human V-region oligonucleotides (Siegel D L, R. M., Lee H, Blancher A., Production of large repertories of macaque mAbs to human RBCs using phage display. Transfusion, 1999. 39(S10): p. 92S, which is incorporated herein by reference). Fab/phage specific for human RBCs were isolated by panning on intact human RBCs. Monoclonal Fab/phage were grown to produce antibodies for immunoassays and their corresponding DNA was extracted for sequencing. To identify target epitopes, antibodies were screened against RBCs of known serologic phenotypes, including rare cells lacking highly conserved antigens, using standard immunohematologic techniques (Roback, J. D., Technical Manual. 2014: American Association of Blood Banks (AABB), which is incorporated herein by reference.)
Using antibody phage display, we identified non-human-primate Fab antibody fragments to antigenic determinants on human RBCs. By panning phage libraries on human RBCs, we produced a Fab/phage preparation with >10⁷ RBC-specific clones capable of agglutinating human RBCs. By performing binding assays against rare RBC types lacking highly conserved antigens and epitopes, we identified the target antigens of >30 of these clones. At least 34 clones bound the Wright b (Wrb) epitope formed by a Band 3/GPA interaction, present on the RBCs of essentially 100% of the human population. The Wrb epitope, determined by the protein sequence of Band 3, is a site of association between Band 3 with GPA, and GPA expression is simultaneously required for its presence on the membrane (Huang C H, Reid M E, Xie S S, Blumenfeld 00. Human red blood cell Wright antigens: a genetic and evolutionary perspective on glycophorin A-band 3 interaction. Blood. 1996; 87(9):3942-3947). At least 3 other clones bound to a highly-conserved epitope Rh17(Hr0) on human RhCE protein, also present on essentially 100% of the human population. Both these targets are specific for erythroid lineage (Rojewski M T, Schrezenmeier H, Flegel W A. Tissue distribution of blood group membrane proteins beyond red cells: evidence from cDNA libraries. Transfus Apher Sci.
B1: the binding result is on record as “binds”. Take B2: the binding result is listed as “binds”. The entry for B3 is “binds”; for B4 it is “binds”; for B5 it is “binds”. For B6 the value was “binds”; for B7, “binds”. Regarding B8, the binding result is “binds”. For B9 the value was “binds”; for B10, “binds”; for B11, “binds”. Turning to B12, the binding result is listed as “binds”. Consider B13, for which the binding result is reported as “binds”. The entry for B14 is “binds”; for B15 it is “binds”.
